Test results as given in patent publication US20150368338A1 (Janssen / Centocor, published 2015).

T1: IFN-αF (human, UniProt P01568 24-189)
T1 construct: also called IFN-α21; alpha F
T1 chain: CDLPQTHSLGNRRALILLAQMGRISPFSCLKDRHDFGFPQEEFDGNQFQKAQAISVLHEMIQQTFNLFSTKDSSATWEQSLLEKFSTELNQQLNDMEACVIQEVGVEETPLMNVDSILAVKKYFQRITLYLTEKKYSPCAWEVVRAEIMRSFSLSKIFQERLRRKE

T2: IFN-αF (human, UniProt P01568 24-189)
T2 construct: Recombinant, HEK293; also called IFN-α21
T2 chain: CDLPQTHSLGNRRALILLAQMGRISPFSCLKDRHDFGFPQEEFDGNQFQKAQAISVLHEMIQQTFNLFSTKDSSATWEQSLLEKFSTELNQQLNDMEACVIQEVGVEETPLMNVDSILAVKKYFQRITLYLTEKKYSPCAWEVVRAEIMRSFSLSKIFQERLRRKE


How the values were obtained:
IFN-αF [1] = biological target: T1, IFN-αF; assay: ProteOn, one antigen concentration
IFN-αC [2] = biological target: T3, IFN-αC (human, UniProt P01566 24-189); assay: ProteOn, one antigen concentration
T3 construct: also called IFN-α10; alpha C

IFN-αJ1 [3] = biological target: T4, IFN-αJ1 (human, UniProt P01567 24-189); assay: ProteOn, one antigen concentration
T4 construct: also called IFN-α7; alpha J1

IFN-α4a [4] = biological target: T5, IFN-α4a (human, UniProt P05014 24-189); assay: ProteOn, one antigen concentration
T5 construct: also called IFN-αM1

IFN-αWA [5] = biological target: T6, IFN-αWA (human, UniProt P05015 24-189); assay: ProteOn, one antigen concentration
T6 construct: also called IFN-α16; alpha WA

human IFN-ω [6] = biological target: T7, human IFN-ω (human, UniProt P05000 24-195); assay: ProteOn, one antigen concentration
T7 construct: also called interferon omega

IFN-αG [7] = biological target: T8, IFN-αG (human, UniProt P01569 24-189); assay: ProteOn, one antigen concentration
T8 construct: also called IFN-α5; alpha G

IFN-αF [8] = biological target: T2, IFN-αF; assay: ProteOn SPR, cell supernatant;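 also: each binding measurement used just a single antigen concentration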
IFN-αC [9] = biological target: T9, IFN-αC (human, UniProt P01566 24-189); assay: ProteOn SPR, cell supernatant;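 also: each binding measurement used just a single antigen concentration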
T9 construct: Recombinant, HEK293; also called IFN-α10

human IFN-ω [10] = biological target: T10, human IFN-ω (human, UniProt P05000 24-195); assay: ProteOn SPR, cell supernatant;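 also: each binding measurement used just a single antigen concentration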
T10 construct: Recombinant, HEK293; also called interferon omega

IFN-α4a [11] = biological target: T11, IFN-α4a (human, UniProt P05014 24-189); assay: ProteOn SPR, cell supernatant;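 also: each binding measurement used just a single antigen concentration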
T11 construct: Recombinant, HEK293; also called IFN-αM1

IFN-αG [12] = biological target: T12, IFN-αG (human, UniProt P01569 24-189); assay: ProteOn SPR, cell supernatant;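 also: each binding measurement used just a single antigen concentration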
T12 construct: Recombinant, HEK293; also called IFN-α5

IFN-αWA [13] = biological target: T13, IFN-αWA (human, UniProt P05015 24-189); assay: ProteOn SPR, cell supernatant;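 also: each binding measurement used just a single antigen concentration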
T13 construct: Recombinant, HEK293; also called IFN-α16

IFN-αJ1 [14] = biological target: T14, IFN-αJ1 (human, UniProt P01567 24-189); assay: ProteOn SPR, cell supernatant
T14 construct: Recombinant, HEK293; also called IFN-α7

Kd (IFN-αF [1]) [nM]	Kd (IFN-αC [2]) [nM]	Kd (IFN-αJ1 [3]) [nM]	Kd (IFN-α4a [4]) [nM]	Kd (IFN-αWA [5]) [nM]	Kd (human IFN-ω [6]) [nM]	Kd (IFN-αG [7]) [nM]	Kd (IFN-αF [8]) [nM]	Kd (IFN-αC [9]) [nM]	Kd (human IFN-ω [10]) [nM]	Kd (IFN-α4a [11]) [nM]	Kd (IFN-αG [12]) [nM]	Kd (IFN-αWA [13]) [nM]	Kd (IFN-αJ1 [14]) [nM]	Binder
–	–	–	–	–	–	–	0.032	0.046	0.025	0.088	0.07	0.059	0.076	IFWM3380 (antibody, IgG1, V domains shown, mAb; IgG1/kappa said of the parent and of selected mAbs; also called IFWB3115) VH: EVQLVQSGAEVKKPGESLKISCKGSGYSFTSYWIGWVRQMPGKGLEWMGIIDPSDSDTRYSPSFQGQVTISADKSISTAYLQWSSLKASDTAMYYCARHPGLAWAPDFDYWGQGTLVTVSS VL: DIQMTQSPSSLSASVGDRVTITCRASQSINRFLNWYQQKPGKAPKLLIYAASSLQSGVPSRFSGSGSGTDFTLTISSLQPEDFATYYCQQAIDLPFTFGQGTKVEIK
0.065	0.059	0.161	0.235	0.141	0.049	0.079	–	–	–	–	–	–	–	IFWM3339 (antibody, V domains shown, VH IFWH591, VL IFWL1093; converted mAb; also called IFWB3074) VH: EVQLVQSGAEVKKPGESLKISCKGSGYSFTSYWIGWVRQMPGKGLEWMGIIDPSDSDTRYSPSFQGQVTISADKSISTAYLQWSSLKASDTAMYYCARHPGLNWAPDFDYWGQGTLVTVSS VL: DIQMTQSPSSLSASVGDRVTITCRASQSIANNDLNWYQQKPGKAPKLLIHWASSLQSGVPSRFSGSGSGTDFTLTISSLQPEDFATYYCQQDYDWPLTFGQGTKVEIK
0.064	0.046	0.245	0.319	0.2	0.057	0.046	–	–	–	–	–	–	–	IFWM3338 (antibody, V domains shown, VH IFWH591, VL IFWL1091; converted mAb; also called IFWB3073) VH: EVQLVQSGAEVKKPGESLKISCKGSGYSFTSYWIGWVRQMPGKGLEWMGIIDPSDSDTRYSPSFQGQVTISADKSISTAYLQWSSLKASDTAMYYCARHPGLNWAPDFDYWGQGTLVTVSS VL: DIQMTQSPSSLSASVGDRVTITCRASQSIRNTNLNWYQQKPGKAPKLLIHWASSLQSGVPSRFSGSGSGTDFTLTISSLQPEDFATYYCQQGYDTPFTFGQGTKVEIK
–	–	–	–	–	–	–	0.028	–	0.062	0.195	0.067	0.076	0.078	IFWM3401 (antibody, IgG1, V domains shown, mAb; IgG1/kappa said of the parent and of selected mAbs; also called IFWB3136) VH: EVQLVQSGAEVKKPGESLKISCKGSGYSFTSYWIGWVRQMPGKGLEWMGIIDPSDSDTRYSPSFQGQVTISADKSISTAYLQWSSLKASDTAMYYCARHPGLAWAPDFDYWGQGTLVTVSS VL: DIQMTQSPSSLSASVGDRVTITCRASQSITNHLNWYQQKPGKAPKLLIYFASSLQSGVPSRFSGSGSGTDFTLTISSLQPEDFATYYCQQAHNFPLTFGQGTKVEIK

Continued, binder first:

Binder	Kd (IFN-αF [1]) [nM]	Kd (IFN-αC [2]) [nM]	Kd (IFN-αJ1 [3]) [nM]	Kd (IFN-α4a [4]) [nM]	Kd (IFN-αWA [5]) [nM]	Kd (human IFN-ω [6]) [nM]	Kd (IFN-αG [7]) [nM]	Kd (IFN-αF [8]) [nM]	Kd (IFN-αC [9]) [nM]	Kd (human IFN-ω [10]) [nM]	Kd (IFN-α4a [11]) [nM]	Kd (IFN-αG [12]) [nM]	Kd (IFN-αWA [13]) [nM]	Kd (IFN-αJ1 [14]) [nM]
IFWM3332 (antibody, V domains shown, VH IFWH591, VL IFWL1074; converted mAb; also called IFWB3067) VH: EVQLVQSGAEVKKPGESLKISCKGSGYSFTSYWIGWVRQMPGKGLEWMGIIDPSDSDTRYSPSFQGQVTISADKSISTAYLQWSSLKASDTAMYYCARHPGLNWAPDFDYWGQGTLVTVSS VL: DIQMTQSPSSLSASVGDRVTITCRASQSIANTNLNWYQQKPGKAPKLLIHWASSLQSGVPSRFSGSGSGTDFTLTISSLQPEDFATYYCQQWYDNPLTFGQGTKVEIK	0.054	0.031	0.135	0.139	0.076	0.034	0.05	–	–	–	–	–	–	–
IFWM3334 (antibody, V domains shown, VH IFWH591, VL IFWL1082; converted mAb; also called IFWB3069) VH: EVQLVQSGAEVKKPGESLKISCKGSGYSFTSYWIGWVRQMPGKGLEWMGIIDPSDSDTRYSPSFQGQVTISADKSISTAYLQWSSLKASDTAMYYCARHPGLNWAPDFDYWGQGTLVTVSS VL: DIQMTQSPSSLSASVGDRVTITCRASQSIRNNSLNWYQQKPGKAPKLLIYAASSLQSGVPSRFSGSGSGTDFTLTISSLQPEDFATYYCQQDYNWPLTFGQGTKVEIK	5.21	0.62	2.4	0.744	0.517	0.345	0.941	–	–	–	–	–	–	–
IFWM3293 (antibody, IgG1, V domains shown, mAb; IgG1/kappa said of the parent and of selected mAbs; also called IFWB3028) VH: EVQLVQSGAEVKKPGESLKISCKGSGYSFTSYWIGWVRQMPGKGLEWMGIIDPSDSDTRYSPSFQGQVTISADKSISTAYLQWSSLKASDTAMYYCARHPGLAWAPDFDYWGQGTLVTVSS VL: DIQMTQSPSSLSASVGDRVTITCRASQSIDEFLNWYQQKPGKAPKLLIYFASSLQSGVPSRFSGSGSGTDFTLTISSLQPEDFATYYCQQAHSFPLTFGQGTKVEIK	–	–	–	–	–	–	–	0.017	0.025	0.029	0.166	0.037	0.046	0.062
